The data set relates to HEK293T. Nature of the data set: median enrichment of reporter reads in eGFP-reduced (low/intermediate) vs eGFP-high sorted cells (eGFP-extension fusion abundance) (ratio); higher = stronger loss of eGFP-fusion protein abundance (more destabilising extension).
Take “PGCLPCLPRPALVAPTALTVNPEAGSPANLWAESGESWWMRLRRRQEHLETGASWTGTLPLPGHRSSGGSNLRLNTRHPCSQK [TMEM91]”: the median enrichment came out at 3.37.
As to “PGLTALRSARRARAETRVGCGELKEPIKSCSSTQNEPCSRHLPMLRDAWSVLGARPGAAACPTPPEEADPDRYLTTFFFFFFF [UQCC3]”, the median enrichment was determined as 5.28.
As for “PHAQSPPIPHAAPPQSQATSCLLLVGGGLLSPSSLTFNLTLTLHRAPTLHPSWKAGLMASHWPPPPDQSVLFRGLAPFPVSLK [LGALS9]”, the median enrichment was 5.55.
“PKWNHLTSAAPDLPGRMPLPLPSSNPQTRTPFLPPQAGPAPGVGSALSTPRAPRPSEGAPAGASDTLQFRAVGGLGHIPVPWL [SECTM1]”: the median enrichment amounted to 1.79.
Turning to “PLAPALPTSSAWSEGAARAQQRRGGRLWPPTSRPVPAGTASPSAGRGSAPRKCLLCPGAERRCLLGAGLPPCGSCAPWPGPCP [ARHGAP39]”, the median enrichment is 1.98.
With “PLLNLDFCPNPLPVTRSISLSLLSNGAWSTEASEAIALLAEVKRTLSPHLRLPCVEPASVCPSFHCSQCQTWAAAPRRLRPNQ [SLC18A3]” the figure was 5.19; with PPP [Pro03], 0.305.
Consider PPPP [Pro04], for which the median enrichment came out at 0.659.
On to PPPPP [Pro05], for which the median enrichment worked out at 0.529.
For PPPPPP [Pro06] the value was 0.323.
On to PPPPPPP [Pro07], for which the median enrichment is 1.37.
Consider PPPPPPPP [Pro08], for which the median enrichment was 1.83.
As for PPPPPPPPP [Pro09], the median enrichment was 3.45.
With “PPTTPHQATPAASAFLGAERQPRPPVPSPPSHHRSSAPGRTVWPLPVPAMGSGWTPWAPPIAKPGRQLSLVPASGQPRVSPAS [CAPN1]” the figure was 6.04; with “PTASSLQVQLKPLSSGGRHVERAGRPTAAENRAGTGSSCSAFPSFGDAGSAAPKHLPAPHSTVSEDSSLLPVKLPCAGMAWTC [CDC14B]”, 2.89; with “PTVRPQRGQDKPCPDAFDRQLCVLVDRCRNKEEMESAPEKLQIQARREVLRKDLQQLHIHINQHNTGWRPNSGVHKRRRDVVG [H6PD]”, 5.25.
On to “PVGKGGGLRGRGWMPRAPKPPFPFVSKGVRSELRKRASECVSLEGLGALWCYHLETCLMPPCLPMEDRLQELGPCGNLACFGG [MTA2]”, for which the median enrichment stood at 6.97.
With “PWPHQWHRGAPATGWPSGQPEHQGHCQPAAEAGEQDRDRPQRALPGQPSGFLRDGGRAGGRWRGMVDVPKRCQRAAGFRILLC [DECR2]” the figure was 3.51; with “PWTWYTSMWSCWARGVLCAVNSVGSCSGVGARFLPPWAEGPFPLVLCPHPPPFSCSWASALPRASQVLLGREGNGEKGEASSV [KLHDC3]”, 6.21; with “QAASWRFEDAAFGLDEFQILLACFLILICLYTYTLCTKLFLIHGLLNPQMWSPWIRKARCTLNDK [B2M]”, 11.1.
QAAVAPGDVCFIVPFFLLV [CCNB2]: the median enrichment was found to be 8.22.
As to QACPAVNLHLEP [SEC16A], the median enrichment came to 0.624.
With QALGKKDCNQRKSIGVEEIKLTLFWLFF [GLI3] the figure was 25.8.
With QALSIPM [IDH3B], the median enrichment was 0.815.
For the substance QAMPRPRT [CREB3L1], the median enrichment stood at 0.317.
Consider “QAPTLLLLALLPASVQRTGRYWWEALCLAPQLPVWASKHNGPSRSLVETGVVVPNLPSALPLHRTQRPQALQGVLVPAFPRTS [AMIGO3]”, for which the median enrichment came to 1.8.
With QAR [MMP10], the median enrichment turned out to be 0.457.
Turning to QATPAWPRSQDTGQGRPGPEELGAGPQT [APBA2], the median enrichment is 0.312.
With QAVFNLLLNWVFLALILIINHNL [FAM47A] the figure was 5.56; with QAVNSTFKVI [LMNTD1], 0.803; with QCDSQCNNIKISFYIII [ASNSD1], 4.36.
For “QCGSCDRGSSSAEPQTVLPCSMCLKAQGDIPLGWPLPPP [DIAPH1]” the value was 1.17.
For QCHLLSPTTP [PPY], the median enrichment worked out at 0.404.
With QCITECGHQPRAAW [FOXJ2] the figure was 0.515; with QCL [ADGRG6], 0.557; with QCLCRIKCLLFYMHILKEKQRPEPRRG [RIOX2], 4.27.
Turning to QCLPERVVRWCHVGEQVSFRTQRRPPFCK [ACTR3B], the median enrichment was 5.17.
Regarding “QCLWPSILISLMRILLALLSLVGICQAQCFNLKLILCFRCQSRYQQPFDPTTALYILVEDFHPCAWKRCSWYIVKK [TCEAL3]”, the median enrichment stood at 10.4.
Turning to QCMSLV [CCDC6], the median enrichment came out at 0.689.
For QCPN [LRRC3B] the value was 0.337; for QCR [CCDC73], 0.362.
Turning to QCVSRCQ [SPG21], the median enrichment was found to be 0.894.
Take QCYLVSF [TRMT10A]: the median enrichment worked out at 4.82.
As to “QDFMHSSERVTVTTVLSPISHKLLFVSKRMLLLLHCFPFAGTCWCLLLNWPALLAVWHCSLGRLLCSLYLHYRLVNLPTSSL [DCUN1D4]”, the median enrichment was found to be 6.12.
QDFRSICKCLFFIIALYIVCYLTR [DDX5]: the median enrichment amounted to 10.2.
For QDGWGWR [SCPEP1], the median enrichment turned out to be 0.778.
For QDLSIF [KCNJ13] the value was 0.364; for QDPVVLFESLRP [HAVCR1], 0.393; for “QDSQLHRRLLPGLLLGRPPACPPCVSTPPARLPAGPSTPCVHTTSNLIGADVFIFLEFLFML [DDA1]”, 7.88.
With QDTERRTYSRNGLVQSQSPPL [CFAP157] the figure was 0.332; with “QDTVNSSSKILACKHPLKFKRGKIKYNEF [ANKRD30BL]”, 1.66.
With QEATDRVSLVIRSQRFTI [ITM2A] the figure was 15.6.
In the case of QEDFKVNFPSLFLN [CSN2], the median enrichment is 0.654.
For QEGPGGPAVLSPAPLGGVW [GALNT2] the value was 0.738; for QEGQDLYSRLVQQRLMD [TAP2], 0.376; for “QEHPHDIAFGGAPVACRIACGLCNLLRFKTDGHMCQWGSLSPGPKKQGTKFKTLASSQPLKPWPPEFPFLSLSFYFFYFYFYF [JAK3]”, 7.54.
On to “QEITRWHQPRALARYGEGTWGPHLPPGLFREDPTVTPPSAVGAWRWAAGLNPPWGAPFLLPICVYIHK [MEF2B]”, for which the median enrichment was 5.36.
With QEKAIWDLITLNRHANTVCVRALCIQ [PCDH9] the figure was 6.25; with QELARQLPLLHPQ [TECTB], 0.3; with QELSERCSIPFPHGKAK [ASXL3], 0.227.
In the case of QELTQQKRTASIPHAFTHQIILKNSDPQVF [TOR3A], the median enrichment is 13.3.
Regarding QELVGSLRTPVLLTPSF [TSNAXIP1], the median enrichment was 2.24.
As for “QEMWSLRCLKSTTMPGIEEDYYLKQWALVFGASDMPSILPSWN [G6PC]”, the median enrichment worked out at 10.6.
For QENKNCRK [MRPL13] the value was 0.366; for QEPHALKKTWEDMVAWNCHPRIPC [ZIM3], 3.53; for “QESKSTLPSHHHGPTGYPEQLHTLLEVSRSLPA [ADAMTSL1]”, 2.98.
With “QESSPPAHQGQDTWLGADAGPDVAEDSRAGRARGGGGGGGGGRRRRSRPLPTTSRRRRGARAEEPGTGDS [C6orf223]” the figure was 0.3.
For “QESSSRGTEDWGQEESGTQPSCPLTPGRPSPHPRVPQSYPLSACVARPDKHLQMAAAPTWDLPRRLEQKGLSLGWCFSSRVLG [TMEM141]” the value was 3.62; for QEWKSGSSRYSFMLCSCEQSTKFE [LMLN], 7.78; for QFCPPVTPVSGTRNPQHALMLCF [DNMT1], 4.79.
For QFDNKAEGLSSNMVAFF [ACSM4], the median enrichment amounted to 0.317.
Consider QFKELKIHMHEP [WDR41], for which the median enrichment is 1.3.
With QFLC [BEST3] the figure was 0.953; with QFLGLFEYSIPMGIYFLSCH [HHIP], 13.7; with QFLQDTVPLPFFDQLSLVASSLHKM [FCF1], 14.2.
With QFPTSELGNCTHSNPACSAS [MAS1L] the figure was 0.296; with “QGAGPWMVPVCLALGMAVEGTWQKQPHVLPCPRPGVDKTRGVFWSPPAELEASHCNFSAQGLLNRCERPVPRVSL [SLC6A13]”, 14.4.
With QGDL [DPYD] the figure was 0.394; with QGGDF [KIF16B], 0.225.
On to QGHACAPMGFLFSFFFFLVGGVGGLD [PRKACA], for which the median enrichment came out at 5.49.
With QGIQGTAL [CXorf26], the median enrichment came out at 0.941.
In the case of “QGLEGQEVGVRSPYSACCPGCAAQLDSASQHLPPRSFLLFIPIFTPKTSLSLFTPPKPLSHAGPLKPQLPTILREHPLPSLPF [GSTM2]”, the median enrichment is 5.62.
Turning to QGLQKNWPWGTKAFFSGLLPRP [KANK4], the median enrichment is 4.85.
QGNPRSNQGGGS [POLA1]: the median enrichment is 0.576.
“QGNWALPHVFLLPPRDSNDMYSHLGHACLPNTIWSWTTFDTNQSYWTRPLEDLKYTSHAVVYLGCDSLSNAALGKDESDLQGE [APOBEC2]”: the median enrichment amounted to 6.1.
With “QGPAPRTDSTRKPNDVPARRPRRAAFPLVLEKLEHPVTALFAMGTGTLFYTMLPPSPP [CARM1]” the figure was 3.47; with “QGPGLRREALSQRLPHPSPLAFNSVASCSPAAEPPRIRLHVTLKLTNFHGPH [FYN]”, 20.4; with “QGPPNLIAGHSQPSESESRFLLSLPSSPLETQLLSQVRQWAGSCFISLSLSIPLCLVSLPLVSAWQPPPPTYHPSPITQVNVT [PGLYRP4]”, 3.73.
Turning to “QGQVICSLSAFTPFNSLTPCQTYLSGTSSPDTFQRREKK [CREBZF]”, the median enrichment is 4.04.
With QGSYGIPPRSARA [CDKN2A] the figure was 5.31.
With QGTCPGSS [UBE2T] the figure was 0.477.
Consider QGVSLSLSFCIICLAECVYRLPKFTKKL [VNN2], for which the median enrichment amounted to 10.5.
In the case of “QHEKDWGGQGGQPAEMRGAGGHSPFSGLDPLRSSPTSCTDNAL [MAP3K9]”, the median enrichment is 0.
For the substance QHGETPSLLKIQKKLARHGGGRL [FBLIM1], the median enrichment was 0.0978.
Consider QHGGFGS [AKAIN1], for which the median enrichment was determined as 0.844.
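Also: lentiviral eGFP-IRES-mCherry reporter pool sorted by FACS 96 h post-transduction, gated on mCherry-high cells, Illumina read counts normalized per million, median across four biological replicates.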
